Substrate in the series: O=c1c(-c2ccc(O)cc2)coc2cc(O)cc(O)c12
In words: 3H-genistein uptake into yeast microsomal vesicles, rapid filtration, Hanes-Woolf plot. The class given is biochemical, Lupinus albus. The note with it: labelled compound, 5 mM ATP, 10 mM MgCl2, 0.1 M KCl, pH 7.4, 30 s, empty-vector uptake subtracted, proton-driven. From the text:
3H-genistein uptake into yeast microsomal vesicles, rapid filtration, Hanes-Woolf plot on LaMATE2 | LaMATE2 mediates an efficient transport of genistein which was characterized by a saturable kinetic

Usually Km stands for the substrate concentration at which the rate is half of its maximum.

B1: LaMATE2 (Lupinus albus) (protein)
chain: MEESLIPKQVEQKTERYNEEKQKHKVTWNSFSEEMKRICVVAGPMVIVISSQYLLQVVSTMMVGHLGELYLSSAALAISLSSVTGFSLIMGMASGLETICGQAFGGKQYKRIGTQTYTAILSLTLVSFVLSLLWINMERILVFIGQDPLIAHESGKFIIWLIPALFAYAIMQPLVRYFQMQSLLFPMLISSLVALCIHIPLCWALVYKTRLHNVGGALALGISNWSNVIFLALYMRYSSACAKTRAPISMELFHGIWEFFRFAVPSALMICLEWWSFELLVLLSGLLPNPQLETSVLSVCLNTISTLYTIPFGIGAAASTRVSNELGAGNPHTARIAVLAAMSLAVLETCVVTGTLFACRHIFGYIFSNEKEVVDYVTLMAPLVCISVILDSLQGVLTGIARGCGWQHLGVYVNLGAFYLLGIPAAATLAFWFKLRGKGLWIGIQVGSFVQTLLLSIITSGINWEQQANKAKYRLLEDESSAENSLA
notes: full ORF in pNEV, no tag stated; expressed in Saccharomyces cerevisiae YPH499, microsomal membrane vesicles; 12 predicted transmembrane helices
As to B1, the Km came to 16.2 µM.

The values above are taken from publication PMC8570342, “Identification of an Isoflavonoid Transporter Required for the Nodule Establishment of the Rhizobium-Fabaceae Symbiotic Interaction” (Frontiers in Plant Science, 2021).
